Results as given in the supplement of paper PMC10567573.

B1: NET1 (parent)
chain: IKRTIRVLDVNNQSFREQEEPSNK
B2: ADD1 (parent)
chain: LRHSFQKQQREKTRWLNSGRGDEA

Variants of: B1
Test: protein stability index of a GFP-peptide fusion (GPS, HEK-293T) (PSI 1-6); higher = more stable
Details: c terminus: a fixed tail appended
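Also: lentivirally expressed fusions sorted by FACS into six bins by GFP to DsRed ratio, PSI derived from sequencing read proportions per bin multiplied by bin number.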

Protein stability index of substitutions, site by site:
K24: L 4.23, Y 3.61, W 2.61, N 3.99, P 3.55, H 4.11, S 4.07, R 3.52, G 3.83, V 3.73, M 3.82, I 3.29, T 4, Q 4.2

Variants of: B2
Test: as above
Details: c terminus: a fixed tail appended

Protein stability index: each site, then its substitutions
R14: M 3.42, V 3.95, T 3.15, Q 4.3, N 3.58, Y 2.76, C 2.68, H 3.98, S 4.03, A 3.58, K 3.78, W 3.25, D 3.52, F 3.52, L 3.02, P 3.86, G 4.03, E 4.59, I 3.02
R10: K 3.9, F 3.92, S 4.58, Q 4.44, P 3.53, D 4.23, I 3.65, V 3.48, W 2.66, E 4.67, N 3.95, M 3.44, L 3.82, H 4.13, A 4.17, G 3.72, C 3.58, Y 3.64, T 3.83
Q9: F 2.71, G 4.15, Y 3.01, D 4.06, L 3.23, W 2.94, N 3.72, M 3.84, H 3.7, A 4.12, S 3.64, K 3.92, R 3.75, T 3.83, V 3.35, C 1.73, P 3.44, I 3.18, E 4.29
E11: S 3.13, A 3.41, I 2.21, H 3.27, P 3.91, F 2.24, R 3.65, G 3.27, M 2.26, D 4.47, Y 2.36, N 2.57, W 2.56, C 1.93, T 3.11, K 3.17, V 2.88, L 2.28, Q 2.87
R2: A 4.17, T 4.05, Q 3.94, P 4.33, S 3.6, V 3.11, H 4.03, F 2.99, W 2.92, Y 3.26, N 4.3, L 3, C 3.58, M 3.85, K 3.71, D 5.03, E 4.42, I 3.06, G 3.97
W15: V 3.97, P 4.66, L 4.38, E 4.81, D 4.42, Q 4.84, F 4.05, I 4.27, H 5.01, Y 4.17, A 4.07, S 4.68, G 4.72, N 4.54, K 4.08, C 3.73, M 4.25, T 4.65, R 4.62
S4: L 2.26, F 2.92, D 3.88, I 2.82, Q 3.72, K 3, G 3.45, E 3.86, W 3.04, V 3.15, C 3.01, N 4.03, P 3.3, H 2.74, T 3.57, A 3.59, R 3.21, Y 2.45, M 2.84
Q6: P 4.11, R 3.7, G 3.11, H 3.69, D 4.37, T 3.7, I 3.25, S 3.18, N 3.87, W 2.53, Y 2.85, K 3.99, E 4.14, C 2.27, A 3.78, L 3.54, M 3.49, V 3.56, F 3.21
F5: L 3.83, R 3.43, Y 3.71, K 3.7, S 4.17, N 4.37, A 4.44, E 4.71, Q 4.19, T 4.11, V 4.17, H 4.24, M 3.8, C 2.21, I 3.74, W 3.44, G 4.16, D 4.37, P 4.4
K12: D 3.96, Q 3.85, C 3.79, S 3.54, L 3.51, P 3.56, R 3.88, G 4.09, M 3.42, A 4.1, F 3.05, V 3.27, E 4.24, W 2.72, H 3.58, Y 3.48, T 3.57, N 3.73, I 3.46
L16: R 4.03, H 3.42, P 4.57, M 3.88, K 4.22, Y 3.42, I 3.67, E 4.72, F 3.28, G 4, Q 4.01, A 3.66, D 4.69, T 3.57, S 4.22, C 4.06, N 3.94, W 2.35
L1: W 2.92, N 4.11, P 4.04, K 3.62, Q 3.78, T 4.32, F 3.8, Y 3.75, H 3.92, G 4.21, R 4.42, M 3.65, I 3.92, V 3.71, D 3.7, C 3.23, S 4.35, E 4.34, A 4.57
N17: P 4.03, R 2.49, L 3.05, G 3.82, S 3.88, C 3.15, V 4.03, H 2.54, M 3.05, K 3.65, E 3.95, F 3.14, Q 3.83, D 3.94, T 3.4, A 3.81, I 2.7
H3: A 3.67, L 3.54, V 3.32, Q 3.67, S 4.03, W 2.28, M 3.29, D 4.53, I 3.16, Y 3.48, K 3.75, C 2.31, F 3.14, T 3.94, E 3.98, G 3.93, P 3.77, R 3.61, N 3.65
Q8: F 2.73, C 2.62, K 3.35, R 3.48, D 3.87, L 3.05, A 4, Y 2.71, E 3.83, P 4.13, S 3.63, T 3.93, W 2.08, G 3.52, M 3.32, N 3.15, I 3.64, H 3.41, V 3.48
T13: Y 2.93, L 3.54, R 3.83, P 3.52, M 3.25, F 3.29, H 3.9, A 3.53, V 3.26, W 2.58, E 4.27, C 3.6, N 4.27, D 4.12, S 3.36, Q 3.2, I 4.01, K 3.91, G 4.07
K7: L 3.89, E 4.33, G 4.57, D 3.87, V 3.38, W 3.08, M 3.22, F 3.63, S 4.24, T 3.67, Q 4.27, I 3.1, A 3.95, R 3.01, Y 3.51, C 1.8, H 3.53, P 3.86, N 4.21
